First the molecules themselves.
B1: CCDC6 (parent)
chain: ASVTIQARAEQEEEFISNTLFKKI

The text below walks through data of the supplement of paper PMC10567573.
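Note: lentivirally expressed fusions sorted by FACS into six bins by GFP to DsRed ratio, PSI derived from sequencing read proportions per bin multiplied by bin number.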

Variants of B1 are the subject of the series. In words: protein stability index of a GFP-peptide fusion (GPS, HEK-293T) (PSI 1-6); higher = more stable. The settings on record: c terminus: a fixed tail appended.
Consider ASVTIQQRAEQEEEFISNTLFKKI, for which the protein stability index amounted to 3.93. Under ASVTIQRRAEQEEEFISNTLFKKI stands 3. The value for ASVTIQIRAEQEEEFISNTLFKKI was 1.93. The value for ASVTIQWRAEQEEEFISNTLFKKI was 2.74; that for ASVTIQCRAEQEEEFISNTLFKKI was 2.45; that for ASVTIQGRAEQEEEFISNTLFKKI was 3.66.

ASVTIQERAEQEEEFISNTLFKKI: the protein stability index was found to be 4.49. As to ASVTIQMRAEQEEEFISNTLFKKI, the protein stability index is 2.67.

As for ASVTIQKRAEQEEEFISNTLFKKI, the protein stability index came to 3.69. The value for ASVTIQYRAEQEEEFISNTLFKKI was 2.8; that for ASVTIQSRAEQEEEFISNTLFKKI was 3.9. The value for ASVTIQVRAEQEEEFISNTLFKKI was 2.8; that for ASVTIQDRAEQEEEFISNTLFKKI was 4.31; that for ASVTIQFRAEQEEEFISNTLFKKI was 1.98. In the case of ASVTIQHRAEQEEEFISNTLFKKI, the protein stability index was determined as 3.6. Take ASVTIQLRAEQEEEFISNTLFKKI: the protein stability index worked out at 2.12. With ASVTIQPRAEQEEEFISNTLFKKI, the protein stability index stood at 3.67. The value for ASVTIQNRAEQEEEFISNTLFKKI was 3.69. Under ASVTIQTRAEQEEEFISNTLFKKI stands 3.85. The value for ASVTIQARAEQEMEFISNTLFKKI was 2.58; that for ASVTIQARAEQEDEFISNTLFKKI was 3.54; that for ASVTIQARAEQEVEFISNTLFKKI was 2.41.

As for ASVTIQARAEQEFEFISNTLFKKI, the protein stability index came out at 2.23. The value for ASVTIQARAEQEIEFISNTLFKKI was 2.18; that for ASVTIQARAEQETEFISNTLFKKI was 3.08; that for ASVTIQARAEQEGEFISNTLFKKI was 3.39. As for ASVTIQARAEQEQEFISNTLFKKI, the protein stability index was 3.29. Regarding ASVTIQARAEQENEFISNTLFKKI, the protein stability index is 3.16. The value for ASVTIQARAEQEPEFISNTLFKKI was 3.4; that for ASVTIQARAEQEHEFISNTLFKKI was 2.29; that for ASVTIQARAEQEWEFISNTLFKKI was 2.08. The value for ASVTIQARAEQEREFISNTLFKKI was 3.18. The value for ASVTIQARAEQEYEFISNTLFKKI was 2; that for ASVTIQARAEQEAEFISNTLFKKI was 2.8; that for ASVTIQARAEQEKEFISNTLFKKI was 3.71.

In the case of ASVTIQARAEQELEFISNTLFKKI, the protein stability index came out at 2.38. Take ASVTIQARAEQESEFISNTLFKKI: the protein stability index came out at 3.11. Under ASVTIQARAEQECEFISNTLFKKI stands 3.07; under ASVTIQARAPQEEEFISNTLFKKI, 2.83.

For the variant ASVTIQARAVQEEEFISNTLFKKI, the protein stability index worked out at 2.27. Under ASVTIQARAYQEEEFISNTLFKKI stands 2.03. Under ASVTIQARAHQEEEFISNTLFKKI stands 3.25; under ASVTIQARATQEEEFISNTLFKKI, 3.22.

For ASVTIQARAMQEEEFISNTLFKKI, the protein stability index worked out at 2.95.

Consider ASVTIQARASQEEEFISNTLFKKI, for which the protein stability index came out at 3.14. The value for ASVTIQARAAQEEEFISNTLFKKI was 3.06. The value for ASVTIQARAWQEEEFISNTLFKKI was 1.54; that for ASVTIQARANQEEEFISNTLFKKI was 3.1; that for ASVTIQARAGQEEEFISNTLFKKI was 2.38. Under ASVTIQARADQEEEFISNTLFKKI stands 3.4; under ASVTIQARAFQEEEFISNTLFKKI, 2.29. As to ASVTIQARAQQEEEFISNTLFKKI, the protein stability index is 3.22. Under ASVTIQARALQEEEFISNTLFKKI stands 2.15. As for ASVTIQARAIQEEEFISNTLFKKI, the protein stability index came out at 2.39.

Regarding ASVTIQARACQEEEFISNTLFKKI, the protein stability index worked out at 2.1. The value for ASVTIQARARQEEEFISNTLFKKI was 2.95. Under ASVTIQARAKQEEEFISNTLFKKI stands 3.15; under ASVTIQARAEQEECFISNTLFKKI, 2.08; under ASVTIQARAEQEEDFISNTLFKKI, 3.31. The value for ASVTIQARAEQEEGFISNTLFKKI was 3.02. As for ASVTIQARAEQEEAFISNTLFKKI, the protein stability index was found to be 3.13. The value for ASVTIQARAEQEEMFISNTLFKKI was 2.99. Under ASVTIQARAEQEETFISNTLFKKI stands 2.87.

As for ASVTIQARAEQEELFISNTLFKKI, the protein stability index stood at 1.89. Under ASVTIQARAEQEESFISNTLFKKI stands 2.79; under ASVTIQARAEQEEKFISNTLFKKI, 3.2. The value for ASVTIQARAEQEEPFISNTLFKKI was 3.01.

With ASVTIQARAEQEERFISNTLFKKI, the protein stability index came to 2.52. The value for ASVTIQARAEQEEVFISNTLFKKI was 2.7; that for ASVTIQARAEQEENFISNTLFKKI was 2.95. The value for ASVTIQARAEQEEWFISNTLFKKI was 1.81. Under ASVTIQARAEQEEHFISNTLFKKI stands 2.7; under ASVTIQARAEQEEQFISNTLFKKI, 2.99. For the variant ASVTIQARAEQEEYFISNTLFKKI, the protein stability index is 2.31. Consider ASVTIQARAEQEEFFISNTLFKKI, for which the protein stability index stood at 1.87. For the variant ASVTIQARAEQEEIFISNTLFKKI, the protein stability index was found to be 2.22. Consider ASVTIQARAEIEEEFISNTLFKKI, for which the protein stability index came out at 2.39. Under ASVTIQARAETEEEFISNTLFKKI stands 3.4; under ASVTIQARAEGEEEFISNTLFKKI, 3.49.

As to ASVTIQARAESEEEFISNTLFKKI, the protein stability index came to 3.75. The value for ASVTIQARAEMEEEFISNTLFKKI was 2.29; that for ASVTIQARAEREEEFISNTLFKKI was 2.83. Under ASVTIQARAENEEEFISNTLFKKI stands 3.71; under ASVTIQARAEAEEEFISNTLFKKI, 3.52. Under ASVTIQARAEDEEEFISNTLFKKI stands 3.99; under ASVTIQARAECEEEFISNTLFKKI, 2.97; under ASVTIQARAEVEEEFISNTLFKKI, 2.56. As for ASVTIQARAEYEEEFISNTLFKKI, the protein stability index was determined as 2.91. The value for ASVTIQARAEEEEEFISNTLFKKI was 4.13; that for ASVTIQARAEFEEEFISNTLFKKI was 2.07; that for ASVTIQARAEHEEEFISNTLFKKI was 3.37. As for ASVTIQARAEKEEEFISNTLFKKI, the protein stability index is 3.4. The value for ASVTIQARAEPEEEFISNTLFKKI was 3.67; that for ASVTIQARAELEEEFISNTLFKKI was 2.97.
